Biological target: Mature human IGF-II (insulin-like growth factor II) (human)
Assay: ELISA

B1: Fab m610.27 (Fab, V domains shown)
VH: QVQLVQSGAEVKKPGASVKVSCKASGYTFTSYYMHWVRQAPGQGLEWMGIINPSGGSTSYAQKFQGRVTMTRDTSTSTVYMELSRLRSDDTAVYYCARDVQWLAYGMDVWGQGTTVTVSS
VL: DIQMTQSPSSLSASVGDRVTITCRASQSISSYLNWYQQKPGRAPDLLINAASSLQSGVPSRFSGSGSGTDFTLTISSLQPEDFATYFCQQSYSLPFTFGGGTKVEIK
EC50: 5 nM

B2: m610 (human mAb to IGF-II), Fab (Fab, V domains shown)
VH: QVQLVQSGAEVKKPGASVKVSCKASGYTFTSYYMHWVRQAPGQGLEWMGIINPSGGSTSYAQKFQGRVTMTRDTSTSTVYMELSRLRSDDTAVYYCARDVQWLAYGMDVWGQGTTVTVSS
VL: not shown
EC50: 20 nM

Source: publication PMC6957267 (Molecular cancer therapeutics, 2012)
